Conditions in all cases: both partners purified
Experiment [1] addresses T1, recombinant SCRM (1-494) (A. thaliana, UniProt Q9LSE2 1-494).
T1 construct: Used in ITC and BLI; In BLI one partner was loaded GST-tagged on anti-GST probes; also called SCREAM; ICE1; source: E. coli BL21, purified (glutathione resin, thrombin, Superdex-200); not shown: GST, N-terminal, cleaved
T1 sequence (looked up): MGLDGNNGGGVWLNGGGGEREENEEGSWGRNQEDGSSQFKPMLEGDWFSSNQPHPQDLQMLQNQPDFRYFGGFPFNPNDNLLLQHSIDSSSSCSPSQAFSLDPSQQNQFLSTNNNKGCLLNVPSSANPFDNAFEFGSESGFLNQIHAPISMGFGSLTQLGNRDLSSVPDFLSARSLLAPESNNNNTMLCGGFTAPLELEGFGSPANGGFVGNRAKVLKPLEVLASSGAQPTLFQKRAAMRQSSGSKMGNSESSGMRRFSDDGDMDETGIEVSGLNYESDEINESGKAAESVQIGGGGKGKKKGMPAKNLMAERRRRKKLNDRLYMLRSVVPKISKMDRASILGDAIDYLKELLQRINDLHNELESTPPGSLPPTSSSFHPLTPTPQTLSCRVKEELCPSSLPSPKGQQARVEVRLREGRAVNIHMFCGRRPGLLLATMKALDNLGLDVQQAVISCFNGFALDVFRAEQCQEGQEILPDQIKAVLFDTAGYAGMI
Kind of experiment: BLI; Octet Red96, anti-GST probes loaded with 500 nM GST tagged protein, 30 °C, 1× PBS, 2% DMSO, 0.02% Tween20; MUTE pre-incubated with Stomidazolone.

In experiment [2] the target is T1, recombinant SCRM (1-494). Briefly: BLI; Octet Red96, anti-GST probes loaded with 500 nM GST tagged protein, 30 °C, 1× PBS, 2% DMSO, 0.02% Tween20; 1:1 model, steady-state analysis; without Stomidazolone.
In experiment [3] the target is T1, recombinant SCRM (1-494). Kind of experiment: ITC; Malvern PEAQ-ITC, 30 °C, PBS pH 7.4, 2% DMSO, 1 mM DTT; without Stomidazolone. In general terms: In ITC the heat of successive injections is recorded.
The target of experiment [4] is T1, recombinant SCRM (1-494). Briefly: ITC; Malvern PEAQ-ITC, 30 °C, PBS pH 7.4, 2% DMSO, 1 mM DTT; MUTE pre-incubated with Stomidazolone.

B1: recombinant MUTE (1-202), as used in BLI (natural protein, A. thaliana, UniProt Q9M8K6 1-202, looked up)
chain: MSHIAVERNRRRQMNEHLKSLRSLTPCFYIKRGDQASIIGGVIEFIKELQQLVQVLESKKRRKTLNRPSFPYDHQTIEPSSLGAATTRVPFSRIENVMTTSTFKEVGACCNSPHANVEAKISGSNVVLRVVSRRIVGQLVKIISVLEKLSFQVLHLNISSMEETVLYFFVVKIGLECHLSLEELTLEVQKSFVSDEVIVSTN
notes: also called full-length MUTE; source: E. coli BL21, purified (glutathione resin)
By Kd is commonly meant the free concentration of one partner at which half of the binding sites on the other are occupied at equilibrium, for simple one-to-one binding. Regarding B1, the Kd in experiment [1] worked out at 856 ± 15.1 nM; in experiment [2], 7.5 ± 1.2 nM.

B2: recombinant MUTE (1-202), as used in ITC (natural protein, A. thaliana, UniProt Q9M8K6 1-202, looked up)
chain: B1 chain
notes: also called full-length MUTE; source: E. coli BL21, purified (glutathione resin, thrombin, Superdex-200); not shown: GST, N-terminal, cleaved
Regarding B2, the values for the Kd in experiment [3] and in experiment [4] were 9.5 ± 1.6 nM and 900 ± 34.5 nM, respectively.

These data come from publication PMC11500415, “Chemical inhibition of stomatal differentiation by perturbation of the master-regulatory bHLH heterodimer via an ACT-Like domain” (Nature Communications, 2024).
